Data from patent US20230279451A1, “METHODS FOR THE BIOCATALYTICAL MANUFACTURING OF DIHYDROCHALCONES” (SYMRISE AG, priority 2019, published 2023).
Entries after “also recorded” stand apart in the source; their conditions may differ.

Experiment: Biotransformation of 3-hydroxyphloretin with lysed E. coli BL21(DE3) cells expressing MxSafC wild-type or variants (LC-MS)
Type: biochemical
Conditions: 3 mM 3-hydroxyphloretin, 3 mM S-adenosylmethionine, 25° C., 24 hours; for product specificity towards hesperetin dihydrochalcone: compared with wild-type MxSafC, FIG. 10 dark grey; for enzyme activity (conversion of 3-hydroxyphloretin): FIG. 10 light grey bars
Description: FIG. 10: Biotransformation of 3-Hydroxyphloretin with lysed E. coli BL21 (DE 3) cells, which express MxSafC (wild-type (wt), cf. SEQ ID NOs: 13, 14, 55), or specific variants or mutants thereof (cf. SEQ ID NOs: 56 to 76). Hesperetin dihydrochalcone as well as homoeriodictyol (HED) dihydrochalcone are the products. Conversion of 3-hyroxyphloretin (30HP) shown in light grey, product specificity towards hesperetin dihydrochalcone is shown in dark grey.
MxSafC mutant variants correspond to SEQ ID NOs: 56 to SEQ ID NO: 76. These were synthesized (BioCat GmbH, Heidelberg, Germany) and cloned into pET28a between NcoI and HindIII restriction sites, respectively. SEQ ID NOs: 13, 14 and 55 show the respective wild-type sequence. By artificial design, certain mutants were created to optimize the activity and/or specificity of the MxSafC enzyme. Interesting single, double and quintuple mutants could be identified, as shown in detail in the results in FIG. 10.
First, various positions within MxSafC (SEQ ID NO: 14) were randomly mutated. All mutants were characterized and checked for activity. In a second round, targeted mutations and combinations thereof were tested in an iterative manner to identify suitable mutants for commercial purposes that have a good activity and conversion rate, but at the same time a good or even improved product specificity. Indeed, certain variants could be identified that fulfill these needs.
30 E. coli BL21(DE3) cells, each containing a plasmid from Table 1, were used to inoculate 5 ml of LB medium (Carl Roth GmbH, Karlsruhe, Germany) with the corresponding antibiotic. After incubation for 16 h (37° C., 200 rpm), 20 ml TB medium (Carl Roth GmbH, Karlsruhe, Germany) were inoculated with an OD600 of 0.1 from these cultures. These main cultures were incubated (37° C., 200 rpm) until an OD600 of 0.5-0.8 was achieved. After addition of 1 mM isopropyl-β-D-thiogalactopyranoside, the cultures were incubated for a further 16 h (22° C., 200 rpm). The main culture was centrifuged (10 min, 10,000 rpm), the pelleted cells were decomposed using the B-PER protein extraction reagent (Thermo Fisher Scientific, Bonn, Germany) according to the manufacturers specifications. After additional centrifugation (10 min, 14,000 rpm) the supernatant was mixed with 3 mM 3-hydroxyphloretin, 3 mM S-adenosylmethionine, 0.1 mM MgCl2. The reaction mixture was incubated at 25° C. for 24 hours. After stopping the assay with 20% trichloroacetic acid ([…] final concentration) the sample was centrifuged and the supernatant used for LC-MS analysis.

B1: L92Q: variant of the O-methyltransferase from Myxococcus xanthus (MxSafC_L92Q) (protein)
chain: MIHHVELTQSVLQYIRDSSVRDNDILRDLREETSKLPLRTMQIPPEQGQLLSLLVRLIGARKTLEVGVFTGYSTLCAALALPADGRVIACDQSEEWVSIARRYWQRAGVADRIEVRLGDAHHSLEALVGSEHRGTFDLAFIDADKESYDFYYEHALRLVRPGGLIILDNTLWSGKVADPSVVGDPETDSLRRINAKLLTDERVDLSMLPIADGLTLARKR
modifications: MxSafC_L92Q
Which “product specificity towards hesperetin dihydrochalcone” value does the source give for B1 here?
The value was “nearly balanced”.

B2: S173H: variant of the O-methyltransferase from Myxococcus xanthus (MxSafC_S173H) (protein)
chain: MIHHVELTQSVLQYIRDSSVRDNDILRDLREETSKLPLRTMQIPPEQGQLLSLLVRLIGARKTLEVGVFTGYSTLCAALALPADGRVIACDLSEEWVSIARRYWQRAGVADRIEVRLGDAHHSLEALVGSEHRGTFDLAFIDADKESYDFYYEHALRLVRPGGLIILDNTLWHGKVADPSVVGDPETDSLRRINAKLLTDERVDLSMLPIADGLTLARKR
modifications: MxSafC_S173H
Which results are given for B2?
enzyme activity (conversion of 3-hydroxyphloretin): particularly favorable; product specificity towards hesperetin dihydrochalcone: performed better than the wild-type

B3: D119P: variant of the O-methyltransferase from Myxococcus xanthus (MxSafC_D119P) (protein)
chain: MIHHVELTQSVLQYIRDSSVRDNDILRDLREETSKLPLRTMQIPPEQGQLLSLLVRLIGARKTLEVGVFTGYSTLCAALALPADGRVIACDLSEEWVSIARRYWQRAGVADRIEVRLGPAHHSLEALVGSEHRGTFDLAFIDADKESYDFYYEHALRLVRPGGLIILDNTLWSGKVADPSVVGDPETDSLRRINAKLLTDERVDLSMLPIADGLTLARKR
modifications: MxSafC_D119P
For B3, which “product specificity towards hesperetin dihydrochalcone” value is on record?
The value was “nearly balanced”.

B4: T40P/S173H: double mutant variant of the O-methyltransferase from Myxococcus xanthus (MxSafC_T40P_S173H) (protein)
chain: MIHHVELTQSVLQYIRDSSVRDNDILRDLREETSKLPLRPMQIPPEQGQLLSLLVRLIGARKTLEVGVFTGYSTLCAALALPADGRVIACDLSEEWVSIARRYWQRAGVADRIEVRLGDAHHSLEALVGSEHRGTFDLAFIDADKESYDFYYEHALRLVRPGGLIILDNTLWHGKVADPSVVGDPETDSLRRINAKLLTDERVDLSMLPIADGLTLARKR
modifications: MxSafC_T40P_S173H
With B4 as the molecule, how does the “enzyme activity (conversion of 3-hydroxyphloretin)” value read?
The value was “a technically reasonable activity”.

What about the “product specificity towards hesperetin dihydrochalcone” value of the same molecule?
The value was “performed better than the wild-type; also recorded: a good specificity”.

B5: W96A: variant of the O-methyltransferase from Myxococcus xanthus (MxSafC_W96A) (protein)
chain: MIHHVELTQSVLQYIRDSSVRDNDILRDLREETSKLPLRTMQIPPEQGQLLSLLVRLIGARKTLEVGVFTGYSTLCAALALPADGRVIACDLSEEAVSIARRYWQRAGVADRIEVRLGDAHHSLEALVGSEHRGTFDLAFIDADKESYDFYYEHALRLVRPGGLIILDNTLWSGKVADPSVVGDPETDSLRRINAKLLTDERVDLSMLPIADGLTLARKR
modifications: MxSafC_W96A
For B5, which “product specificity towards hesperetin dihydrochalcone” value is on record?
The value was “performed better than the wild-type”.

B6: T40P: variant of the O-methyltransferase from Myxococcus xanthus (MxSafC_T40P) (protein)
chain: MIHHVELTQSVLQYIRDSSVRDNDILRDLREETSKLPLRPMQIPPEQGQLLSLLVRLIGARKTLEVGVFTGYSTLCAALALPADGRVIACDLSEEWVSIARRYWQRAGVADRIEVRLGDAHHSLEALVGSEHRGTFDLAFIDADKESYDFYYEHALRLVRPGGLIILDNTLWSGKVADPSVVGDPETDSLRRINAKLLTDERVDLSMLPIADGLTLARKR
modifications: MxSafC_T40P
For B6, which “enzyme activity (conversion of 3-hydroxyphloretin)” value is on record?
The value was “particularly favorable”.

What about the “product specificity towards hesperetin dihydrochalcone” value of the same molecule?
Its value is “performed better than the wild-type”.

B7: M5: quintuple mutant of MxSafC combining mutation T40P/L92Q/W96A/D119P/S173H (protein)
chain: MIHHVELTQSVLQYIRDSSVRDNDILRDLREETSKLPLRPMQIPPEQGQLLSLLVRLIGARKTLEVGVFTGYSTLCAALALPADGRVIACDQSEEAVSIARRYWQRAGVADRIEVRLGPAHHSLEALVGSEHRGTFDLAFIDADKESYDFYYEHALRLVRPGGLIILDNTLWHGKVADPSVVGDPETDSLRRINAKLLTDERVDLSMLPIADGLTLARKR
modifications: MxSafC_M5
notes: quintuple mutant of MxSafC combining mutation T40P/L92Q/W96A/D119P/S173H
With B7 as the molecule, how does the “product specificity towards hesperetin dihydrochalcone” value read?
Its value is “performed better than the wild-type”.
